Molecular target: HIV coat protein gp120 (oligomannose bearing) (HIV (Human Immunodeficiency Virus), UniProt P04578 33-511, high-mannose-type N-glycans (oligomannose), sites not stated)
Assay: MST; NT-647 labeled PFA held constant, serial dilution of gp120, in 0.1% PBST; 'effective' binding affinity
Details: both partners purified

B1: NT-647 labeled PFA (natural protein)
chain: MSKYAVANQWGGSSAPWHPGGTWVLGARDNQNVVAIEIKSGDGGKSFTGTMTYAGEGPIGFKAQRTGQNQYNVENQWGGNDAPWHPGGKWVIGGRDNQNVIALSVTSSDGGKNLSGTNTYANEGPIGFRGQIEVSHPQAPF
modifications: NT-647 fluorophore on amines (amine-reactive NT-647-NHS labelling kit)
- Kd: 4.1 ± 1.4 nM
